Reference: publication PMC10592355

Assays:
[1] = tested on: TyrRS K244Q (Homo sapiens); assay: filter binding; details: Filter binding: 10 mM HEPES pH 7.5, 4 mM KCl, 0.02 mg/mL BSA, 0.2 mM DTT, 30 min RT, TyrRS 125 nM to 8 uM, wash 60 mM HEPES pH 7.5, 10 mM MgCl2; EMSA …
TyrRS WT (Homo sapiens) = assay: filter binding; details: Filter binding: 10 mM HEPES pH 7.5, 4 mM KCl, 0.02 mg/mL BSA, 0.2 mM DTT, 30 min RT, TyrRS 125 nM to 8 uM, wash 60 mM HEPES pH 7.5, 10 mM MgCl2; EMSA …

## human tRNATyr transcript
[1]
  Kd: 1180 nM
TyrRS WT (Homo sapiens)
  Kd: 849 nM
